Laboratory results taken from article PMC3101314.

How the values were obtained:
[1] = target: mature HIV-1 protease bearing drug-resistance mutation L76V (PR_(L76V)) (HIV-1); test: enzyme activity against protease concentration
[2] = target: mature HIV-1 protease bearing drug-resistance mutation L76V (PR_(L76V)) (HIV-1); test: ITC

Row | Substance | Kd [1] [nM] | Kd [2] [nM]
1 | mature HIV-1 protease bearing drug-resistance mutation L76V (PR_(L76V)) (enzyme) | 71 | –
2 | RPB inhibitor (H-Arg-Val-Leu-(r)-Phe-Glu-Ala-Nle-NH2), substrate-analog inhibitor with a reduced peptide bond | – | 61
